From the supplement of paper PMC9732359
± gives the uncertainty stated by the source.

Experiment: protein stability index of a GFP-peptide fusion (yeast GPS) (PSI 1-4); higher = more stable; sorted into four equal gates, so the index is relative within each strain
Outline: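 Tiled 17-residue peptides from yeast proteins were fused downstream of GFP on a plasmid that also expresses Cherry, and the pooled library was carried in yeast. Mid-log cultures grown in leucine-free medium were sorted into four equal gates by GFP/Cherry fluorescence ratio. Plasmids from each gate were PCR-amplified and Illumina-sequenced, and reads were assigned to strains by barcodes. Each peptide's protein stability index is the sum, over gates, of the gate's read frequency multiplied by its gate number.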

Row | Sequence | protein stability index (doa10∆) | protein stability index (pdr5∆) | protein stability index (san1∆) | protein stability index (ubr1∆)
1 | DMDAESNESQNGKDSEI [SMC3] | 3.42 ± 0.12 | 3.22 ± 0.096 | 2.89 ± 0.1 | 3.31 ± 0.038
2 | GAHLGRFVIWTEAAFTK [RPL4A] | 2.87 ± 0.21 | 3.04 ± 0.2 |  | 2.54 ± 0.25
3 | IDNLKDTLKENATEVQK [ITC1] | 2.66 ± 0.05 | 2.87 ± 0.068 | 2.92 ± 0.05 | 2.88 ± 0.05
4 | KSVLGDGKKHSVFYTIL [RPO31] | 2.19 ± 0.087 | 2.42 ± 0.085 | 3.02 ± 0.08 | 2.1 ± 0.087
5 | EPTYRLVRYGLAEKVEK [RPS24A] | 3.48 ± 0.19 | 3.42 ± 0.2 |  | 3.12 ± 0.19
6 | WLETYSENRDKFLQEFI [IRR1] | 2.97 ± 0.096 | 1.93 ± 0.11 | 2.58 ± 0.096 | 1.92 ± 0.1
7 | TMVIQDEDWSVRIDKAL [ECM29] | 2.84 ± 0.19 | 3.21 ± 0.18 |  | 
8 | PKDKAIKRMAIRNIVEA [RPS26A] | 1.25 ± 0.068 | 1.63 ± 0.096 | 1.9 ± 0.15 | 1.95 ± 0.054
9 | IVQELLDKNLIKLVKQN [RPC34] | 1.97 ± 0.057 | 1.99 ± 0.058 | 2.62 ± 0.068 | 2.57 ± 0.052
10 | YSSVAGTVSRVNRLLSV [RRP4] | 1.74 ± 0.036 | 1.77 ± 0.038 | 1.82 ± 0.053 | 1.8 ± 0.03
11 | LSEDVNLETLVTTKDDL [RPT2] | 3.01 ± 0.13 | 2.87 ± 0.17 | 2.57 ± 0.15 | 2.89 ± 0.096
12 | VLDHQRAIPFRRFNSSI [RPL17A] | 2.69 ± 0.095 | 2.39 ± 0.14 | 1.67 ± 0.15 | 1.4 ± 0.13
13 | SFHVQKKTCSSCGYPAA [RPL37A] | 1.85 ± 0.091 | 2.13 ± 0.11 | 1.71 ± 0.16 | 2.06 ± 0.068
14 | KAEIPPEYAKVGDFLLQ [SIN4] | 1.52 ± 0.079 | 1.93 ± 0.06 | 1.7 ± 0.093 | 1.46 ± 0.061
15 | MSTDVAAAQAQSKIDLT [SEM1] | 2.91 ± 0.079 | 2.82 ± 0.095 | 2.98 ± 0.079 | 2.88 ± 0.083
16 | TETALMNLKKELQGYIE [SRB5] | 3.05 ± 0.097 | 3.07 ± 0.089 | 3.11 ± 0.062 | 2.94 ± 0.085
17 | LLEPPAKELQGIDPDET [RPO31] | 3.19 ± 0.15 | 3.11 ± 0.14 | 3.31 ± 0.082 | 3.18 ± 0.12
18 | LATGPNLTSEIEDLRAD [YOR098C/NUP1] | 3.42 ± 0.11 | 3.25 ± 0.11 | 3.12 ± 0.06 | 3.25 ± 0.082
19 | TCPGLSLTDVAFFTYDA [ECM29] | 3.36 ± 0.14 | 3.05 ± 0.091 | 2.78 ± 0.072 | 3.11 ± 0.099
20 | GVFDPASYSKYLIDHIK [RPL22B] | 3.12 ± 0.051 | 3.1 ± 0.069 | 2.92 ± 0.06 | 2.9 ± 0.043
21 | LGNGVACDPSEIEPILM [RGR1] | 2.06 ± 0.075 | 2.19 ± 0.067 | 3.34 ± 0.071 | 2.91 ± 0.063
22 | PTKTLTTKERKKSRLGN [PRP8] | 2.33 ± 0.079 | 2.26 ± 0.072 | 2.91 ± 0.094 | 2.62 ± 0.056
23 | PTLPTNHNKTKLLKSLK [PRP8] | 2.33 ± 0.07 | 1.6 ± 0.056 | 1.82 ± 0.076 | 2.41 ± 0.057
24 | IYEVDITVHAPLLPIVE [SNU114] | 2.32 ± 0.056 | 2.29 ± 0.056 | 2.19 ± 0.088 | 2.52 ± 0.043
25 | TGITKKDEDEEADEDMK [PRE9] | 3.09 ± 0.057 | 3.3 ± 0.074 | 3.06 ± 0.064 | 3.07 ± 0.061
26 | KFDIIIVDTSGRHHQEE [SRP54] | 3.01 ± 0.07 | 2.94 ± 0.046 | 2.71 ± 0.072 | 3.17 ± 0.06
